For the data set, the target named is T1, CytRN (CytR DNA-binding domain) (Escherichia coli, UniProt P0ACN7 1-66).
T1 sequence: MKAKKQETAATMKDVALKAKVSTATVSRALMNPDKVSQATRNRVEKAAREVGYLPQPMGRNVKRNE
The data set can be described thus: NMR.

The values below come from paper PMC10306299.

B1: udp half-site DNA (dsDNA)
DNA 1: ATTTATGCAACGCA
DNA 2: TGCGTTGCATAAAT
For the molecule B1, the binding result is on record as “binds”.
